# Measurements taken from the DeepSol protein solubility set.
# Test: soluble on expression in E. coli; label from the status in PepcDB or PDB records
row,Sequence,soluble on expression in E. coli
1,MKLSLVFLLFVAFAKSADTAPVDFNKIFVTFVEELMDAINQLILEQMGAIRPSTTPLQSIPPITATDAPTTADTTAEPTKAHETTVAQEATSEGAETHETTVGQDTTVRSGESQETTVSQGTTVSQENTVSQETTVSQDTTVSQETTVSQDTTVSQDTTVSQESTVSQETTVSQDTTVSQETSVSHETNVSPDTTVSQESTVSQDTTVSQETTLSQETTVSQETTVSQDTTVSQETTASQDTTVSQDTTVSQDTTVVPQETTVEATKASEATEENGTTAVTPGESDPCDTTEAPTGGSTVGESEPCDTTEASEPTGHTDQAETVTDPASQATASATIIGGVDQTGSTNLEATTEQICKHPTKDSEEEKTDENKDEKTTRAGTNVHRPEREDILK,not soluble
2,MKLSPVSAAVLSVLAAGFAHAETEPSHYEEVVVTANRIEQPLSEVAGSVAVLEGETLEKQGKTELYDALNQEPGVSVTGGAGRPQNITIRGMTGNRIAIVRDGIQSADGYGAADINDKYGRNTFSLSNVKQIQVVKGASSTLYGSGAIGGVVIIESKAPEDYLYHRDYYVDAALTYSGISNRYQGNHALAMRHGDGEALLTIDYWQGEETRNFNQDLYNREVDGYNLGFSHHYWLNDALRLKTHLEYFDDYAKRREGTSSIQKDDKWDLVSFYEYQRSQTRLASVGADYTANLSWMDTLEGKFYWRSTENITQTNRLMANDRSGAGILSYRRELRDEGFNDEALGATLNAQKEWQQGEWLHQFAYGMSVDGHDYQRPKSIRRMESSGDDLQADEPFAPAREYRFGVYGQDNLLLGDWTLAAGLRFDAQKLSPKNTDRIHGYKVVTMGSSEWSPSASISYQWHPEWNTYLSYNHGFRAPSYDKAYGASDHSFVPLTPFIIKPNNKLRAETSDSFELGSKYDNGQTQFYVAVFYSIFDNFIDVKQVGYDNATGSVIQQYQNIAGVKTYGAEMSVMHRLDDRWSVENKLGYVDGKDGENQYVRTLTPLEGSVQLNYQRERWDAYSRLNWASAMSRVPTCTTEQGKETECATTTGWVSWDIGLNYQWNAQLSASFNVVNLLDREYTRYQDVAGVTPSDTLYSTEPGRYFTVHAKYVF,not soluble
3,MKLSQMQAGERGIILALDGLSDTVRKKLMVMGVLPNTEVVLIRRAPMGDPLQVEVRGVSIALRENIAANIDVERAQ,not soluble
4,MKLSTKLCWCGIKGRLRPQKQQQLHNTNLQMTELKKQKTAEQKTRPQNVGIKGIQIYIPTQCVNQSELEKFDGVSQGKYTIGLGQTNMSFVNDREDIYSMSLTVLSKLIKSYNIDTNKIGRLEVGTETLIDKSKSVKSVLMQLFGENTDVEGIDTLNACYGGTNALFNSLNWIESNAWDGRDAIVVCGDIAIYDKGAARPTGGAGTVAMWIGPDAPIVFDSVRASYMEHAYDFYKPDFTSEYPYVDGHFSLTCYVKALDQVYKSYSKKAISKGLVSDPAGSDALNVLKYFDYNVFHVPTCKLVTKSYGRLLYNDFRANPQLFPEVDAELATRDYDESLTDKNIEKTFVNVAKPFHKERVAQSLIVPTNTGNMYTASVYAAFASLLNYVGSDDLQGKRVGLFSYGSGLAASLYSCKIVGDVQHIIKELDITNKLAKRITETPKDYEAAIELRENAHLKKNFKPQGSIEHLQSGVYYLTNIDDKFRRSYDVKK,soluble
5,MKLTGSKILIECLKEQGVDTIFGFPGGAVLNIYDELYRSQNEIRHILTSHEQGAAHAADGYARATGKVGVCLATSGPGATNLVTGIATAYMDSVPMVAITGQVATPLLGKDSFQEVDITGITMPITKHNFIVKDVNKLADIVRRAFYIAKEGRPGPVLIDICKDVTAAYAEYEPKSPQELPEVPVRVDEKCIDEAAEAINKAERPVILAGGGVSIAGANKELFEFATNAQIPVTTTLMGMGAFPGTHELFMGMIGMHGTKTTNMAVSESDLFIAIGARFSDRVISNVQRFAPKASIMHIDIDPAEIGKNINVQYALEGNIKKILQLLNERVKKKECTDWVRKINEWKELYPLKYPQDDKLHPQYIIERMYELTKGEAIITTEVGQHQMWAAQFYKYTSPRQFLSSGGLGTMGYGLGACIGARIGRPDKKVINVAGDGSFRMNCNELATAVEYKLPIIVAIFNNHALGMVRQWQQLFYGGRYSSTSLDRCTDFKALAEAYGAIGINVTAKEEVDEALNRALASEDTPVVINFEIDKDEMVFPIVPPGAPLSELIEE,not soluble
6,MKLYNLKDHNEQVSFAQAVTQGLGKNQGLFFPHDLPEFSLTEIDEMLKLDFVTRSAKILSAFIGDEIPQEILEERVRAAFAFPAPVANVESDVGCLELFHGPTLAFKDFGGRFMAQMLTHIAGDKPVTILTATSGDTGAAVAHAFYGLPNVKVVILYPRGKISPLQEKLFCTLGGNIETVAIDGDFDACQALVKQAFDDEELKVALGLNSANSINISRLLAQICYYFEAVAQLPQETRNQLVVSVPSGNFGDLTAGLLAKSLGLPVKRFIAATNVNDTVPRFLHDGQWSPKATQATLSNAMDVSQPNNWPRVEELFRRKIWQLKELGYAAVDDETTQQTMRELKELGYTSEPHAAVAYRALRDQLNPGEYGLFLGTAHPAKFKESVEAILGETLDLPKELAERADLPLLSHNLPADFAALRKLMMNHQ,soluble
7,MKLYYKVGAASLAPHIILSEAGLPYELEAVDLKAKKTADGGDYFAVNPRGAVPALEVKPGTVITQNAAILQYIGDHSDVAAFKPAYGSIERARLQEALGFCSDLHAAFSGLFAPNLSEEARAGVIANINRRLGQLEAMLSDKNAYWLGDDFTQPDAYASVIIGWGVGQKLDLSAYPKALKLRERVLARPNVQKAFKEEGLN,soluble
8,MKMLEQLEKKLGYTFKDKSLLEKALTHVSYSKKEHYETLEFLGDALVNFFIVDLLVQYSPNKREGFLSPLKAYLISEEFFNLLAQKLELHKFIRIKRGKINETIIGDVFEALWAAVYIDSGRDANFTRELFYKLFKEDILSAIKEGRVKKDYKTILQEITQKRWKERPEYRLISVEGPHHKKKFIVEAKIKEYRTLGEGKSKKEAEQRAAEELIKLLEESE,soluble
9,MKMLVGKIPSELLAKILEKLKPGDKVIVGPKVGIDATAIDFGDYVLVASTDPITGTEEKIGFYAVNINANDVATFGARPKWFLVTILLPEGSEFNDVITIMDEVREVAEGMGISIVGGHTEVTPGLKKPIVVGTMLGEVEKENLVVPNPRPGDAIILTKGAGIEGTSIIAHEREEELKGVFGSNFVERAKAFINEISIVREALLSREFATAMHDPTEGGIANGLHEMADINGLGFRIFANKVIIREETRKICHFYDLDPLALISSGALLISTPRDHAKFLIERLLSHGIQASIIGEFLAEKKRVIIENGAERPLKRPESDELWKVV,soluble
10,MKMMDANEIISFIQNSTKSTPVKVYVKGELEGINFGESAKAFINGNTGVVFGEWSEIQTAIEENQSKIEDYVVENDRRNSAIPMLDL,not soluble
11,MKMNPRCTYCLLSRVHFQSKLSTDDEDLISRTIHECLGVMNKHYSPEAVSSRVATKVHRKCYEVLRDSDPYEVTKKLINQAALKVLPAAKEKIYENSPDDGELFKRAVLASVIANYFDFGIMGFDASEDKFEAAFLKYYEQGLDVDDTPEMLGLLQDVVYIADNCGEILFDAIVFDVIKKLGGNITLVVRGGPILTDVTLEEIKEFEIDKKVDRVMTTGSNAVGVLVEEAPAELLDAMKNATLIISKGMANYETLSEHNFGPIAYMLLTKCECVAEDLGLETGLSVAKLMNFPLEHHHHHH,soluble
12,MKMQKELSVYLKQILQAAQYIRLYTDKMDYGQFSADTKTVQAVVFNLFLIGENATHILKSYPEFAEETKYLNWIGMRGYCAIGLPMATLK,not soluble
13,MKMTSRKLSDILKKRLQNDSWSFHFDREKDSLRIEDKNTGKGITLELPGIIAKWEQKKDDAIDEVVYYTEEALNAMKGQSQEMEGRESLIYPVIRSTSFPEKSSAGVPLVFDGHTAETRIYYALDLGNTYRLIDEKMLEKEGWTKERIRETASFNLRSLQTVVKEDEVAGNHFYFFRANDGYDASRVLNESILAEYEKNAEGTLAVSIPHQDVLIIADIRNNAGYDILGQMSMSFFANGTVPITALSFLYEDGKLEPIFILAKNRPKK,not soluble
14,MKMYEVKEFSSGKRKLEDYKSIIGEEEVSKIQEKAEKLKGRSFVHVNSTSFGGGVAEILHSLVPLLRSIGIEARWFVIEGPTEFFNVTKTFHNALQGNESLKLTEEMKELYLNVNRENSKFIDLSSFDYVLVHDPQPAALIEFYEKKSPWLWRCHIDLSSPNREFWEFLRRFVEKYDRYIFHLPEYVQPELDRNKAVIMPPSIDPLSEKNVELKQTEILRILERFDVDPEKPIITQVSRFDPWKGIFDVIEIYRKVKEKIPGVQLLLVGVMAHDDPEGWIYFEKTLRKIGEDYDVKVLTNLIGVHAREVNAFQRASDVILQMSIREGFGLTVTEAMWKGKPVIGRAVGGIKFQIVDGETGFLVRDANEAVEKVLYLLKHPEVSKEMGAKAKERVRKNFIITKHMERYLDILNSLGGLEHHHHHH,soluble
15,MKNELICYKQMPVWTKDNLPQMFQEKHNTKVGTWGKLTVLKGKLKFYELTENGDVIAEHIFTPESHIPFVEPQAWHRVEALSDDLECTLGFYCKKEDYFSKKYNTTAIHGDVVDAAKIISPCKVLDLGCGQGRNSLYLSLLGYDVTSWDHNENSIAFLNETKEKENLNISTALYDINAANIQENYDFIVSTVVFMFLNRERVPSIIKNMKEHTNVGGYNLIVAAMSTDDVPCPLPFSFTFAENELKEYYKDWEFLEYNENMGELHKTDENGNRIKMKFATMLARKK,soluble
16,MKNIAAQMVNFDREQMRRIANIDNQDMTISVWVFPDTDISDVSRELIAAIKQGYLTVKAAGVWAGGIETPSVETPSEGSKFFGFDMDNEFISGFDVGAWGVLL,soluble
17,MKNIVIVGGGVAGTITANYLAMKLREEIREKNVSITLISDREKQLYEPGLLYLIFNRMEESEILKDVKYLLDPLIELKIARATKIDAEKSRVELENGEVVNYDYLVIATGSRVAPEEMPGLVDGGHWFYNLDGAKRLREELARFKKGKVVVSVMGIPHKCPVAPIEVTFMLHEFFKIHGVRKDVELLYTYPINRVFTMEEVSDLVQKMFDERGINYKTFFNPVSIDPEKKVIETLEGEEEPYDLLIAIPPHKGSQVIIDSGLGDRDGWVPTDRYTLKAEGLENVYVVGDATNLPVSKAGSVAHFEAEVVAENIAAEIKGLPPTARYFGKAMCFIETGFSEATYIWFDYETPPKFVKPNKFIHWMKLAYNRMYWLTARGMLLEHHHHHH,soluble
18,MKNKSLLLAVAISATLLAGCKNGVNGNLIASSGMSTYKAATLSDADVKALSNNACKQMDSENQLAGSKSKYTKRLSKIAKALGNNIDGTPVSYKVYMTSDINAWAMANGCVRVYSGLMDLMTDNEIEGVLGHELGHVSLGHSRKAMQTAYATLAARDAISATSGVAAQLSQSQLGDLAEGVINSAFSRSQESDADDFSYDLLKKRGINTQGLVTAFDKFATMDAGHAKSLMDSHPASADRAQHMRDRIAEDKKLEHHHHHH,not soluble
19,MKNNRYSPDWPQLALQKKQSVNWVCERCGVQCLKPGEGKGLSTGDRYRLRMAVHHCDYDPSNNYPSNLMALCSPCHLYYHRRQRGNVTPGQLTLKFCLEHHHHHH,not soluble
20,MKNVGDLMQRLQKMMPAHITPAFKTGEELLAWQKEQGEIRAAALARENRAMKMQRTFNRSGIRPLHQNCSFDNYRVECDGQMNALSKARQYVDEFDGNIASFVFSGKPGTGKNHLAAAICNELLLRGKSVLIITVADIMSAMKDTFSNRETSEEQLLNDLSNVDLLVIDEIGVQTESRYEKVIINQIVDRRSSSKRPTGMLTNSNMEEMTKMLGERVMDRMRLGNSLWVNFTWDSYRSRVTGKEYLEHHHHHH,soluble
21,MKPIQVEREIFRYEQGAIKHIEDSIVTEFPVTIKMNGQEFVTMVSTPEYIEDMVIGFLASEGIIRKYEDIDSVWVQEKEGFVHVTTTKVNPYYEQMQNKRYITSCCGMSRQGFVFANDALSAKKMKGVHVQVAADDCFRLMKEMQQSADTFHRTGGVHNAALCDVNGIILSRMDIGRHNALDKIYGYCLRNDISIKDKIIVFSGRISSEILLKVAKIGCEIILSKSAPTELALQLAEDLGITTIGFIRNHSLNVYTHPERVLNIKLEHHHHHH,soluble
